From publication PMC7612939

Biological target: TCRβ chain of the 5c.c7 TCR (Vβ3) (mouse (T-cells of 5c.c7 TCR transgenic mice))
Experiment: FRET or BRET

- FRET yield: 25%
Substance: CD3ε (from UniProt P22646 22-189) (natural protein)
